# Publication PMC2995052 (Nucleic Acids Research, 2010)
# Target: the molecule itself
# Assay: SEC
protein,measurement,value
"P2 C repressor (immunity repressor of temperate Escherichia coli phage P2) (natural protein, bacteriophage P2, UniProt P04132 1-99, looked up) MSNTISEKIVLMRKSEYLSRQQLADLTGVPYGTLSYYESGRSTPPTDVMMNILQTPQFTKYTLWFMTNQIAPEFGQIAPALAHFGQNETTSPHSGQKTG",stoichiometry N,2
